According to PMC11826091:

Columns and labels:
[1] = test system: T1, MtvA (Pseudomonas aeruginosa PAD8 (plasmid pPAD8)), ORF:f8ca6192; experiment: EMSA; conditions: pH 8.0, 25 min at room temperature
T1 sequence: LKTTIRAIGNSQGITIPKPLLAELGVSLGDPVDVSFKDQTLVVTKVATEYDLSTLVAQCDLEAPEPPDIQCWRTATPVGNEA

[2] = test system: MtvA;MtvT (Pseudomonas aeruginosa PAD8 (plasmid pPAD8);Pseudomonas aeruginosa PAD8 (plasmid pPAD8)), ORF:f8ca6192+ORF:03226125; experiment: EMSA; conditions: pH 8.0, 25 min at room temperature

Sequence	binding [1]	binding [2]
TTACTCGAGAAGTTTGGAATAACCAGAGATATGCTCGTCAACAACGAATGTTTGAACATATTTATCGGAACTTATTACATTCAGCGTAGCGTGCTGGGGAGTGATGATTTTTGGAAGGGCGTTGGTAATTACCACTCTCGCACGCCCGACAAAAACTACCGGTACAAACATCGTGTGTGGAACAGTCTCAAAGAAGTCCGGGGGCAGCAGGATCCATA (double strand) [P-icmP]	binds	binds
TTACTCGAGTGATGGCGATCGCCGCCGACGATGCTTCGTTTGATCACAGCTGCGTGGTCAACTTCAAATCGGCCGCCTGAGGGCGGCCCTACCCATAGATCCTGATTCCTCAACAAGAAAAAGCGACGTGTCCATTCGTTGACACTAAAGGTATTTTTGCGTATTTTTCGACATTATCATCTAATGAAAGTCGTTGGGGTTTGTTCGGTGGATCCATA (double strand) [P-icmL]	binds	binds
CGGAAAACCTTAGACCCACTGAAGACCCGGCGTTCGCCGGGTTTTTTGTGTCTGCTCTTGTAAGCATTAACTTACACGGCGTGTGAGCCTAAGTAGATAAATGCCCGGGAGGTTTGCCAAAAACGCTCGGTGAATTTAAGTAACTTATTGAAATTAAAGGAATATATTTTTCTAAAATGGCTGCCGAAGAAGCTTCGCTGGGTTTTCTGGCAGGTTGCGGGAGCACTGGGAATCGCTAATATCACTCCTG (double strand) [P-rsmZ]	binds	binds
TATGGATCCCGTATCTGCTCGGTTGGTTGATGGACAAAGCGCTTATCAAAAGGAAAACAACGCTTTGGCGCACGACTATACAGCAACGAAAGTCGAACGATAAGGCAATGATAGTCAGAAGTGACCCACCACTCAACACCAACCCACGCCCATATAGGTCTACGGTGACCTAAAACCTCGCTCGCCCTCCAAATAGGTCACCTGTGACCCTCGAGTAA (double strand) [P-dotD]	binds	binds
GCTGGGAAGGCTCGCGATGATGAGGGGACTGGCCACTGTAGCGGGCCCGGCGCAGATCATCTTGACGCACGGCAAGCTCCCGGCGGCTGGGTGTTGCCGTCGGTCCGGCGAGCGGAACTATTACAGCGTGTAAGCCAAGGCTTACAAACGGCGGTGGTTTTGGCTGCTTTCTCCCCCTCGCAGAGATGCGTAATCTTCAAACCGTCAGGACATTGCGCAGG (double strand) [P-rsmY]	binds	binds
GTACGATCATCTTCACTTCCTCCAAATAGGAAGCTGAAGAATTTATGCAAATTTCATAATTTTATAACTAGCAAATGAGATAGATTTCGGTGAACCCGGACCCTTGCTAGGCTCGAAGAAACGTCCGAAAAGATCAGAGCA (double strand) [P-lasI]	no binding	no binding
GCCGTCTCCGCGCGGGAGGAAAAGGCCACAGCGATGTGGCTTTTTTCTTAAAAGAAAAGTCTCTCAGTGACAAAAGCGATGCATAGCCCGGTGCTAGCATGCGCTGAGCTTTAGGAGGCGCCCCC (double strand) [P-exsC]	no binding	no binding
